Sequences and labels used below:
B1: D domain of SEQ ID NO: 543 (designed binder)
chain: MGSWFEFKDYLADIKWDLEALGGSEAELAIFEHDIAYFEHNLQQYKGKGNPEVEALRKEAAAIRDELQAYRHN
B2: D domain of SEQ ID NO: 544 (designed binder)
chain: B1 chain with F5V, E6R, Y10F, W16M, I30D, H33Y, D34H, Y37E, Q44E
B3: D domain of SEQ ID NO: 525 (designed binder)
chain: MGSWVLFKEELAYIKFELEALGGSEAELALFENVIAIFESNLQNYKGKGNPEVEALRKEAAAIRDELQAYRHN
B4: D domain of SEQ ID NO: 521 (designed binder)
chain: MGSWAWFKEDLAEIKVFLEALGGSEAELAEFEVSIADFEYELQDYKGKGNPEVEALRKEAAAIRDELQAYRHN
B5: D domain of SEQ ID NO: 530 (designed binder)
chain: MGSWYYFKDELADIKWDLEALGGSEAELAWFEMLIAQFELDLQWYKGKGNPEVEALRKEAAAIRDELQAYRHN
B6: D domain of SEQ ID NO: 542 (designed binder)
chain: B5 chain with Y6Q, D9T, D13W, W16D, M33W, L34V, Q37D, L40D, W44F
B7: D domain of SEQ ID NO: 531 (designed binder)
chain: B5 chain with Y5M, E10T, D17Y, W30F, M33D, L34W, Q37E, L40D, W44V
B8: D domain of SEQ ID NO: 535 (designed binder)
chain: MGSWHWFKIVLADIKDGLEALGGSEAELAYFETTIADFEMDLQHYKGKGNPEVEALRKEAAAIRDELQAYRHN
B9: D domain of SEQ ID NO: 536 (designed binder)
chain: B8 chain with Q43H
B10: D domain of SEQ ID NO: 538 (designed binder)
chain: MGSWFMFKQELAWIKEDLEALGGSEAELADFEWDIAEFEWDLQYYKGKGNPEVEALRKEAAAIRDELQAYRHN
B11: D domain of SEQ ID NO: 539 (designed binder)
chain: B10 chain with F5Q, M6I, Q9G, W13Y, E16Q, D17Y, D30F, W33F, W40E
B12: D domain of SEQ ID NO: 548 (designed binder)
chain: MGSWGWFKHELAFIKADLEALGGSEAELAWFEEEIAEFEYELQFYKGKGNPEVEALRKEAAAIRDELQAYRHN
B13: D domain of SEQ ID NO: 540 (designed binder)
chain: MGSWDFFKEELAEIKHYLEALGGSEAELAFFEFWIADFEQDLQEYKGKGNPEVEALRKEAAAIRDELQAYRHN
B14: D domain of SEQ ID NO: 541 (designed binder)
chain: B13 chain with D5F, F6N, E13V, H16F, Y17Q, F33W, W34V, Q40D
B15: D domain of SEQ ID NO: 537 (designed binder)
chain: MGSWFMFKEELADIKDWLEALGGSEAELASFESYIAWFEQDLQWYKGKGNPEVEALRKEAAAIRDELQAYRHN
B16: D domain of SEQ ID NO: 524 (designed binder)
chain: MGSWYIFKEDLAEIKEELEALGGSEAELAYFEEEIALFEMELQWYKGKGNPEVEALRKEAAAIRDELQAYRHN
B17: D domain of SEQ ID NO: 526 (designed binder)
chain: MGSWQDFKEDLAWIKYELEALGGSEAELAFFEYDIAIFENNLQHYKGKGNPEVEALRKEAAAIRDELQAYRHN
B18: D domain of SEQ ID NO: 522 (designed binder)
chain: MGSWYEFKFDLAEIKEQLEALGGSEAELALFEDDIAFFEYDLQNYKGKGNPEVEALRKEAAAIRDELQAYRHN
B19: D domain of SEQ ID NO: 523 (designed binder)
chain: B18 chain with E6D, F9Y, E16M, Q17D, L30Q, D33F, Y40E, D41E, N44D
B20: D domain of SEQ ID NO: 532 (designed binder)
chain: B18 chain with E6Q, F9H, E13D, E16Y, Q17G, L30W, F37D, Y40L, N44Y
B21: D domain of SEQ ID NO: 533 (designed binder)
chain: B5 chain with Y6V, E10D, W16Y, D17M, M33W, L34E, Q37N, L40F, W44Y
B22: D domain of SEQ ID NO: 552 (designed binder)
chain: MGSWLYFKEYLADIKSDLEALGGSEAELAWFEYEIADFEEQLQYYKGKGNPEVEALRKEAAAIRDELQAYRHN
B23: D domain of SEQ ID NO: 527 (designed binder)
chain: MGSWDHFKNDLAWIKKHLEALGGSEAELAEFEAVIAYFELYLQGYKGKGNPEVEALRKEAAAIRDELQAYRHN
B24: D domain of SEQ ID NO: 534 (designed binder)
chain: MGSWNFFKYDLADIMAYLEALGGSEAELAFFEDEIANFEHDLQKYKGKGNPEVEALRKEAAAIRDELQAYRHN
B25: D domain of SEQ ID NO: 545 (designed binder)
chain: MGSWWLFKEQLALIKYNLEALGGSEAELADFESWIAEFEHQLQEYKGKGNPEVEALRKEAAAIRDELQAYRHN
B26: D domain of SEQ ID NO: 549 (designed binder)
chain: MGSWTWFKDNLAWIKEDLEALGGSEAELAWFELEIASFETALQDYKGKGNPEVEALRKEAAAIRDELQAYRHN
B27: D domain of SEQ ID NO: 550 (designed binder)
chain: B26 chain with W6Y, D9N, N10D, W13G, W30Q, L33F, S37E, T40W, A41L
B28: D domain of SEQ ID NO: 551 (designed binder)
chain: B12 chain with G5T, H9W, E10D, F13D, A16G, W30F, Y40W, E41R, F44D
B29: D domain of SEQ ID NO: 553 (designed binder)
chain: MGSWHWFKEELAEIKEDLVALGGSEAELAWFEYDIAMFELSLQNYKGKGNPEVEALRKEAAAIRDELQAYRHN
B30: D domain of SEQ ID NO: 554 (designed binder)
chain: B29 chain with H5N, W6D, E13W, E16F, V19E, Y33E, L40Q, S41Q, N44A
B31: D domain of SEQ ID NO: 546 (designed binder)
chain: MGSWHVFKTELADIKFYLEALGGSEAELAMFELWIAEFEHELQDYKGKGNPEVEALRKEAAAIRDELQAYRHN
B32: D domain of SEQ ID NO: 528 (designed binder)
chain: MGSWYDFKEDLADIKWMLEALGGSEAELAEFENVIAYFENDLQEYKGKGNPEVEALRKEAAAIRDELQAYRHN
B33: D domain of SEQ ID NO: 529 (designed binder)
chain: B5 chain with Y6M, D9E, D17Y, M33D, L34D, Q37G, L40W, W44A
B34: D domain of SEQ ID NO: 547 (designed binder)
chain: MGSWIWFKDWLADIKDLLEALGGSEAELAEFEYDIALFEDQLQAYKGKGNPEVEALRKEAAAIRDELQAYRHN

Numbering of substitutions follows the chain as printed.

This assay deals with T1, CD123 (Homo sapiens (Human), UniProt P26951 19-305, limits assumed).
T1 construct: The CD123 construct used in the ELISA is not described; also called CD123-Signal
T1 sequence: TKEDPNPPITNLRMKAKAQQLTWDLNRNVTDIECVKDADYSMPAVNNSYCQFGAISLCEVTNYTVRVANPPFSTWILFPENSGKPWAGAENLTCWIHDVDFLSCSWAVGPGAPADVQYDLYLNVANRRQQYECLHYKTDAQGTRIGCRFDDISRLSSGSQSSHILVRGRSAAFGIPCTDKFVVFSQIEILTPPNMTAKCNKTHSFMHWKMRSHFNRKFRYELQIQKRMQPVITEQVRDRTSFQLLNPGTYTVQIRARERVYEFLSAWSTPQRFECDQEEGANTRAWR
In words: ELISA. The arrangement: unit not given here. Background: ELISA stands for enzyme-linked immunosorbent assay.
For B1, the ELISA_avg worked out at 3.8.
The value for B2 was 5.8; that for B3 was 3.5.
Consider B4, for which the ELISA_avg turned out to be 3.5.
B5 had an ELISA_avg of 4.
B6 returned an ELISA_avg of 6.6.
The molecule B7 gave an ELISA_avg of 3.1.
B8 came in with an ELISA_avg of 4.3.
The same measure for B9: 3.5.
As for B10, the ELISA_avg came out at 7.2.
The value for B11 was 4.7; that for B12 was 3.3.
For B13, the ELISA_avg was 3.7.
As for B14, the ELISA_avg was 6.1.
Molecule B15 had an ELISA_avg of 5.7.
Regarding B16, the ELISA_avg was 11.1.
The value for B17 was 3.2.
The molecule B18 returned an ELISA_avg of 4.6.
As for B19, the ELISA_avg is 3.2.
In turn, B20 came in with an ELISA_avg of 4.7.
Regarding B21, the ELISA_avg is 3.8.
The same measure for B22: 3.7; for B23: 3.3.
Consider B24, for which the ELISA_avg was found to be 4.4.
The value for B25 was 4.1; that for B26 was 6.9; that for B27 was 3.6.
The molecule B28 displayed an ELISA_avg of 5.9.
Regarding B29, the ELISA_avg is 3.1.
The same measure for B30: 3.8; for B31: 5.4.
The value for B32 was 8.
Molecule B33 registered an ELISA_avg of 7.
In turn, B34 returned an ELISA_avg of 7.3.

The record behind these values is patent US20250026849A1 (ARCELLX, published 2025).
